Legend:
Tyr150 = experiment: kinetics; details: cited from earlier work
[1] = target: ScHIcDH (homoisocitrate dehydrogenase from Saccharomyces cerevisiae) (Saccharomyces cerevisiae, UniProt P40495, D271N); experiment: initial rate, NADH formation at […] nm, dead-end inhibition; assay type: biochemical
Lys206 = experiment: kinetics; details: Steady-state turnover at saturating reactants (V/Et); cited from earlier work

Chain of ScHIcDH (homoisocitrate dehydrogenase from Saccharomyces cerevisiae) (P40495 23-371 D271N): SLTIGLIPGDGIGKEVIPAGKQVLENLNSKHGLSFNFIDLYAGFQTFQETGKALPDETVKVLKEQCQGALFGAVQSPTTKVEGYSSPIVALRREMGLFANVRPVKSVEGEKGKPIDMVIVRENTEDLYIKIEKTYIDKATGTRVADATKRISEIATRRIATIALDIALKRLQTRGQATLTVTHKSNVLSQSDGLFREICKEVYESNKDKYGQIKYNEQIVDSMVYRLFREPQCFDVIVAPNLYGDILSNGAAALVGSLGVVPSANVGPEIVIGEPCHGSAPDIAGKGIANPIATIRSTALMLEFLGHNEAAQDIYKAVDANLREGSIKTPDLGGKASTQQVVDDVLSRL

Homoisocitrate dehydrogenase (ScHIcDH) K206M mutant (Saccharomyces cerevisiae; K206M)
pKa (Tyr150; Steady-state turnover at saturating reactants (V/Et)): 9.5

Homoisocitrate dehydrogenase (ScHIcDH) (Saccharomyces cerevisiae)
pKa (Tyr150; Steady-state turnover. V profile: enzyme saturated with NAD and MgHIc.): 9.5

O=C(O)CS[C@H](C(=O)O)[C@@H](O)C(=O)O [Thiahomoisocitrate]
Ki [1]: 20 ± 3 mM

Homoisocitrate dehydrogenase (ScHIcDH) Y150F mutant (Saccharomyces cerevisiae; Y150F)
pKa (Lys206): 6

CC(=O)c1ccc[n+]([C@@H]2O[C@H](COP(=O)([O-])OP(=O)(O)OC[C@H]3O[C@@H](n4cnc5c(N)ncnc54)[C@H](O)[C@@H]3OP(=O)(O)O)[C@@H](O)[C@H]2O)c1 [3-AcPyrADP]
Ki [1]: 0.34 ± 0.05 mM
